Source: the RNAGym collection of RNA variant scans (doi:10.1073/pnas.2313332121)
This sample holds only a part of the variants without activity.

B1: TPR 5TU (parent)
chain: GGAUCUUCUCGAUCUAACAAAAAAGACAAAUCUGCCACAAAGCUUGAGAGCAUCUUCGGAUGCAGAGGCGGCAGCCUUCGGUGGCGCGAUAGCGCCAACGUUCUCAACUAUGACACGCAAAACGCGUGCUCCGUUGAAUGGAGUUUAUCAUG

Variants of: B1
Assay: polymerase ribozyme fitness, log enrichment relative to wild type (log ratio); higher = more active; in vitro selection for triplet polymerase activity
Outline: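 Fitness measures genotype enrichment against wild-type enrichment on a logarithmic scale, with inverse-variance-weighted averaging of replicates. The logarithm is base 2, and genotypes were kept only with ≥10 input reads and ≥1 read per output in Illumina sequencing. The sequenced libraries came from one triplicate in vitro selection round, including frozen incubation at −7 °C, of PCR-built, transcribed mutant libraries of each subunit of a heterodimeric triplet polymerase ribozyme.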

| Variant | polymerase ribozyme fitness (log ratio) |
| --- | --- |
| G68U C79G G84A C105U A147U | ≤ -4.2 |
| A66G C87A | ≤ -4.2 |
| A64C C85G G140A | ≤ -4.2 |
| G62C G68A U82G C93A A97G C118A G143U | ≤ -4.2 |
| C63U C72U C105A | -3.97 |
| C63A U102C | -0.926 |
| G68A C85U A110G | ≤ -4.2 |
| G67C G68C C118U A120G | ≤ -4.2 |
| G65U G84U G88A | ≤ -4.2 |
| G62A C85U G86U C87G | ≤ -4.2 |
| G62A C93U C118U G143U | -3.81 |
| G68A G81U C96A | -3.57 |
| G68A C96A C99U A110G U145C | ≤ -4.2 |
| C63U C99G | -1.04 |
| G62U A73C G94C | ≤ -4.2 |
| C63G G70A | -3.15 |
| C63U C79U G88C U90G C95A C99U A107U | ≤ -4.2 |
| G67U C96G | -3.31 |
| C63A U144C U145A | -2.97 |
| C69A U78G U90G G128A C131U | ≤ -4.2 |
| G62A C87U C116U G117U | -0.42 |

| Variant | polymerase ribozyme fitness (log ratio) |
| --- | --- |
| A64U C75U C85U G136C | ≤ -4.2 |
| C63A C85G U134A | -4.18 |
| A64G C87A C105A U144G | ≤ -4.2 |
| G68A C105U | -3.51 |
| G65C G92A A137C G141C | ≤ -4.2 |
| C69A A97G A98U U104A G124A | -2.14 |
| C63A G84A A121C A142U U145A A150C | ≤ -4.2 |
| G67U G70U G81A G83U A97U | ≤ -4.2 |
| A66G G88U A119G U139G | ≤ -4.2 |
| A66C A73C G140U A147C | ≤ -4.2 |
| A64C G83C U139C A150C G152U | ≤ -4.2 |
| G62C G67C U134C A147G | ≤ -4.2 |
| C69A U77C A98U A122U U146C U151A | ≤ -4.2 |
| G62A G65A A66C U77C U135C U145G | ≤ -4.2 |
| A66U C87G U90G U102A C132U | ≤ -4.2 |
| C63G C93A | -1.77 |
| A66C U134C | ≤ -4.2 |
| G68U G71U G86U A97U | ≤ -4.2 |
| G68A G88A C116A A119U | -3.78 |
| G62A G92A C116U | -2.52 |
| G68C G74C C87U C118A U135A C149G | ≤ -4.2 |

| Variant | polymerase ribozyme fitness (log ratio) |
| --- | --- |
| G67C C93A G133A U151G | ≤ -4.2 |
| A64C G84A G128A | ≤ -4.2 |
| G62A C96A | -2.92 |
| A66G A73C C85G A107U | ≤ -4.2 |
| G62U G92C C96A A98U | -2.71 |
| G62C C63U | -2.25 |
| G68A C116A C123U | ≤ -4.2 |
| A66G C114U | -4.17 |
| G62A C103A G152A | -3.85 |
| A64G C87A A115G C125A U148C C149G | ≤ -4.2 |
| G67U U146A | -2.89 |
| G65A G70A G94A C116U G143U | ≤ -4.2 |
| A64U C93U A138G | ≤ -4.2 |
| C63G C125G U145C A150C | ≤ -4.2 |
| G68A G74A U90C | ≤ -4.2 |
| C63U U134A | -2.6 |
| C63G C75U C93U A120U | -0.964 |
| G67A C87U C103U C114G C116U A119G | ≤ -4.2 |
| G65A G126A | -0.138 |
| G62U C76U C85G | -2.1 |
| A66G C76A | -3.94 |

| Variant | polymerase ribozyme fitness (log ratio) |
| --- | --- |
| G67C C79G A97U C116A A142C | ≤ -4.2 |
| G68A C85U C105A G124A G133U | ≤ -4.2 |
| G62U G68C A98G G124C G141A | ≤ -4.2 |
| C69A U90A A147C | ≤ -4.2 |
| C63A G70A G84A | ≤ -4.2 |
| A64G G86U U130C | ≤ -4.2 |
| G68C C93U | -4.04 |
| G65C C93A A97U C108U U109C | ≤ -4.2 |
| A64C G68C C87A A91G C99A A121C A122C G143U | ≤ -4.2 |
| G62C A97G | -0.203 |
| A64G G68A C85A | ≤ -4.2 |
| G62A C76U | -1.26 |
| C69A G84U A137G | -3.58 |
| C69A A89U | -1.41 |
| G68A G83U G88A A107U C114U | ≤ -4.2 |
| G68A C79U A91G | -4.14 |
| G67U G74C A107U C123G | ≤ -4.2 |
| C63G G92A U145G | -2.07 |
| C63A C93U A98C | -1.62 |
| G67A C72A A142U A150G | ≤ -4.2 |
| A66C A106G U144G | ≤ -4.2 |
